Kd data for one molecule are collected here from publication PMC8379990, “Structure of autoinhibited Akt1 reveals mechanism of PIP3-mediated activation” (Proceedings of the National Academy of Sciences of the …, 2021).

As a reminder, the Kd is the concentration at which binding is half-saturated. A low value points to a tighter complex.

This test concerns the target T1, C-terminal tail peptide (FITC-SMEAVDSERRPHFPQFSYSASGTA) (human, C460A (from the letters against P31749, from memory; not stated by the paper) …, FITC (fluorescein) on the N-terminus; unphosphorylated).
T1 construct: residues 457 to 480 of human Akt1 (the C-terminal tail residues missing in Akt1^ΔC); The methods call it 'the C-terminal 35 amino acids of Akt1', but the printed peptide has 24 residues; also called fluorescein-labeled peptide (unphosphorylated)
T1 peptide: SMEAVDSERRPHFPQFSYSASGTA
The test can be described thus: fluorescence polarisation; fluorescence anisotropy; reverse titration of 200 to 250 µM Akt1^ΔC in buffer with 100 nM fluorescein-labeled peptide; 20 °C, 20 mM Tris pH 8.0, 100 mM NaCl, 1 mM TCEP; one-site binding model; three independent titrations; saturation not reached. The following applies: both partners purified. For orientation: In fluorescence polarisation assays a small probe gives low polarisation when free and higher when bound to something large.

B1: Akt1 1 to 456 (Akt1^ΔC) (domain or fragment)
chain: MNDVAIVKEGWLHKRGEYIKTWRPRYFLLKNDGTFIGYKERPQDVDQREAPLNNFSVAQCQLMKTERPRPNTFIIRCLQWTTVIERTFHVETPEEREEWTTAIQTVADGLKKQEEEEMDASAEHTDMEVSLAKPKHRVTMNEFEYLKLLGKGTFGKVILVKEKATGRYYAMKILKKEVIVAKDEVAHTLTENRVLQNSRHPFLTALKYSFQTHDRLCFVMEYANGGELFFHLSRERVFSEDRARFYGAEIVSALDYLHSEKNVVYRDLKLENLMLDKDGHIKITDFGLCKEGIKDGATMKTFCGTPEYLAPEVLEDNDYGRAVDWWGLGVVMYEMMCGRLPFYNQDHEKLFELILMEEIRFPRTLGPEAKSLLSGLLKKDPKQRLGGGSEDAKEIMQHRFFAGIVWQHVYEKKLSPPFKPQVTSETDTRYFDEEFTAQMITITPPDQDD
modifications: phosphothreonine at T450 (stoichiometrically monophosphorylated, turn motif)
B1: the Kd was around 500 µM.
